Experimental findings from article PMC3178039 (Journal of cellular physiology, 2011) are described below.

The stoichiometry N is the number of molecules, sites or subunits per partner or assembly.

This data set concerns the molecule itself. Put plainly: SDS-PAGE and immunoblot.

B1: intestinal lactoferrin receptor (LfR) (receptor, human (endogenous in Caco-2), UniProt Q8WWA0 19-298, looked up)
chain: TDEANTYFKEWTCSSSPSLPRSCKEIKDECPSAFDGLYFLRTENGVIYQTFCDMTSGGGGWTLVASVHENDMRGKCTVGDRWSSQQGSKAVYPEGDGNWANYNTFGSAEAATSDDYKNPGYYDIQAKDLGIWHVPNKSPMQHWRNSSLLRYRTDTGFLQTLGHNLFGIYQKYPVKYGEGKCWTDNGPVIPVVYDFGDAQKTASYYSPYGQREFTAGFVQFRVFNNERAANALCAGMRVTGCNTEHHCIGGGGYFPEASPQQCGDFSGFDWSGYGTHVGYS
On to B1, for which the “stoichiometry N” value worked out at 3.
